One molecule from article PMC10330843 (Cell, 2023) can be followed below.

The target in this experiment is recombinant full-length mouse cGAS (mouse, UniProt Q8C6L5 1-507). As to the kind of experiment: co-IP.
recombinant full-length mouse cGAS, sequence (Q8C6L5 whole entry): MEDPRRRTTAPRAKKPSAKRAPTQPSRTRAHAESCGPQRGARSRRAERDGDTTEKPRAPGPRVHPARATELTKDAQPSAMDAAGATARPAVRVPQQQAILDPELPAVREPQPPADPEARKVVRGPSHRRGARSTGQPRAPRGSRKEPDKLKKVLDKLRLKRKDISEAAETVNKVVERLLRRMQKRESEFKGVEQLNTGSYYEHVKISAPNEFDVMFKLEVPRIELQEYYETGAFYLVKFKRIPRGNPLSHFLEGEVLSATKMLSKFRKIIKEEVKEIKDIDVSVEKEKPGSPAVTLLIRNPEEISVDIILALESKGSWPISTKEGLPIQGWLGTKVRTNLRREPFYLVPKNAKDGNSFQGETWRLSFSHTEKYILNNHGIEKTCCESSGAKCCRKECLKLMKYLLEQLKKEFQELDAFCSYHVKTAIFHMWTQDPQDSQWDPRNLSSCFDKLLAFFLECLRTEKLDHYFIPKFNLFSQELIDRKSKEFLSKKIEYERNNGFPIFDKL

B1: recombinant full-length mouse ZBP1 (natural protein, UniProt Q9QY24 1-411, looked up)
chain: MAEAPVDLSTGDNLEQKILQVLSDDGGPVKIGQLVKKCQVPKKTLNQVLYRLKKEDRVSSPEPATWSIGGAASGDGAPAIPENSSAQPSLDERILRFLEANGPHRALHIAKALGMTTAKEVNPLLYSMRNKHLLSYDGQTWKIYHSRQEGQDIAHSGVTQESPAIICQHNPVNMICQQGANSHISIANSNAIQIGHGNVIVREKACGEPGPRTSHPLPLAWDASAQDMPPVAHGAQYIYMDKSLLQQVQLGHHNEMSLVGDAGKHPSYSFSDSPPEVSTTTADPGASFNMQTFEPGPHPEGDTVQTVHIKSCFLEDATIGNGNKMTIHLRSKGEVMESGDSEEPKKEDTGTSSEATPPRSCQHTPSDSMLPTSELRAMALGDSSPQTTEPVLREHEVQDIESSQDTGLSKQ
With B1, the binding result is on record as “binds”.
